Test results taken from article PMC9864903, “Imaging of the Glucose-Dependent Insulinotropic Polypeptide Receptor Using a Novel Radiolabeled Peptide Rationally Designed Based on Endogenous GIP and Synthetic Exendin-4 Sequences” (Pharmaceuticals, 2022).

Key:
[1] = dynamic PET/CT organ distribution in pig; type: in vivo; conditions: liver, total radioactivity, dynamic PET/CT
Description: An anesthetized pig (25 kg) was positioned to include the abdomen with pancreas in the center of the 25 cm axial field of view of a Discovery MI PET/CT scanner (GE Healthcare, MI, USA) by assistance of a low-dose CT scout view (140 kV, 10 mAs). The details of the animal handling, preparation, and anesthesia have been previously described.
Attenuation correction was acquired by a 140 kV, 10–80 mA CT examination. The administration of [^68Ga]Ga-C803-GIP (17.3 MBq, corresponding to approximately 2.5 μg peptide or 0.10 μg/kg) was made upon the start of the baseline dynamic scan lasting for 90 min (30 frames; […]). The dynamic scan was followed by a static scan over the brain from 90–120 min post administration. A second PET investigation was performed after an additional 2 h to allow the radioactivity from the first scan to fade from the circulation by decay and excretion.
The GIP(1-42) infusion was continued until the end of the PET scan. Finally, after the last PET scan, a contrast-enhanced CT scan was performed to assist delineation of the tissues, e.g., the pancreas.
Segmentation of the tissues of interest (descending aorta, pancreas, spleen, kidney, liver, and muscle) was performed in PMOD (PMOD Technologies), and time–activity curves were expressed as SUV as detailed above.

[2] = post-production stability of the 68Ga-labeled product at room temperature (UV-Radio-HPLC); type: physicochemical; conditions: ambient temperature, for at least 2 h, with addition of ascorbic acid
Description: The ^68Ga-labeling procedure was optimized in terms of the radiochemical yield and required optimization of such factors as temperature, heating time, radical scavenger content, buffer concentration, pH, and product purification mean. The labeling was reproducible with a high non-decay corrected radiochemical yield of 61.1 ± 2.9% and a molar activity of 59.8 ± 4.4 MBq/nmol at the end of the synthesis (Figure 2). The radioactivity at the end of the synthesis was 424 ± 29 MBq with a radiochemical purity of 94.5 ± 0.3% (for the chromatogram, see Supplementary Materials, Figure S1). […]
The ^68Ge/^68Ga generator (pharmaceutical grade, GalliaPharm®, Eckert & Ziegler, Berlin, Germany) eluate was fractionated, and the top fraction of 3.5 mL containing approximately 90% of the radioactivity was collected for the radiolabeling. […] The radiochemical purity and the peptide concentration in the product were determined by high-pressure liquid chromatography (HPLC). […] The stability of the product at room temperature was monitored for 2 h and assessed by UV-Radio-HPLC. […] The total radioactivity of the product was then measured in an ionization chamber. The radioactivity recovery from the analytical column was controlled by performing an analysis of the product, generator eluate, and the product spiked with the generator eluate with and without column. […]

CC[C@H](C)[C@H](NC(=O)[C@H](CO)NC(=O)[C@H](Cc1ccc(O)cc1)NC(=O)[C@H](CC(=O)O)NC(=O)[C@H](CO)NC(=O)[C@@H](NC(=O)[C@H](Cc1ccccc1)NC(=O)[C@@H](NC(=O)CNC(=O)[C@H](CCC(=O)O)NC(=O)[C@@H](C)NC(=O)[C@@H](N)Cc1ccc(O)cc1)[C@@H](C)O)[C@@H](C)CC)C(=O)N[C@@H](C)C(=O)N[C@@H](CC(C)C)C(=O)N[C@@H](CC(=O)O)C(=O)N[C@@H](CCCCN)C(=O)N[C@H](C(=O)N[C@@H](Cc1c[nH]cn1)C(=O)N[C@@H](CCC(N)=O)C(=O)N[C@@H](CCC(N)=O)C(=O)N[C@@H](CCC(=O)O)C(=O)N[C@@H](Cc1ccccc1)C(=O)N[C@H](C(=O)N[C@@H](CCC(=O)O)C(=O)N[C@@H](Cc1c[nH]c2ccccc12)C(=O)N[C@@H](CC(C)C)C(=O)N[C@@H](CCCCN)C(=O)N[C@@H](C)C(=O)NCC(=O)NCC(=O)N[C@@H](Cc1c[nH]cn1)C(=O)N1CCC[C@H]1C(=O)N[C@@H](CO)C(=O)NCC(=O)N[C@@H](C)C(=O)N1CCC[C@H]1C(=O)N1CCC[C@H]1C(=O)N1CCC[C@H]1C(=O)N[C@@H](CO)C(=O)N[C@@H](CSCCS(=O)(=O)CCN1CCN(CC(=O)O)CCN(CC(=O)O)CCN(CC(=O)O)CC1)C(N)=O)[C@@H](C)CC)[C@@H](C)CC [[^68Ga]Ga-C803-GIP, metal not drawn]
SUV at 0.5 h ([1]; read-out: uptake in the liver after 30 min): < 1 SUV | SUV at 1.5 h ([1]; read-out: uptake in the liver after 90 min): ~0.5 SUV | radiochemical purity on post-production storage (stability) [2]: over 91%
